Marks after values point to notes of the source that are not given here.
Legend:
[1] = system: carrageenan-induced paw edema; assay: Carrageenan-induced paw edema; type: in vivo, Sprague Dawley rats; details: given one hour before carrageenan; paw volume three hours later; MP8 subcutaneously, indomethacin by mouth
Description: Based on the standard model (Winter et al., Proc Soc Exp Biol Med 111:544, 1962; Hansra et al., Inflammation 24:141, 2000), the experiment was performed as follows. Male Sprague Dawley rats were randomized by weight into three treatment groups. The animals were administered MP8 or control solution subcutaneously, or indomethacin by mouth. One hour later, they were injected in the left hind paw with a sterile solution of 1% carrageenan suspension in water, in order to induce swelling. Three hours later, the volume of the injected paw was measured by water displacement in a water plethysmograph (mean±SEM; 10 animals per group).
Male Sprague Dawley rats were administered with test protein or indomethacin (anti-inflammatory control), and then challenged in a hind footpad with carrageenan, as in Example 12.

[2] = Stability of receptor cleaving activity upon storage (FRET assay); type: physicochemical; details: a month of storage at 4° C. or −70° C., purified form
Description: The stability of MP8 was determined by storing aliquots of MP8 at 4° C. or −70°. Aliquots were taken out periodically to determine enzyme cleaving activity in the fluorescence resonance energy transfer peptide cleavage assay.

[3] = system: Experimental Autoimmune Encephalomyelitis; assay: Experimental Autoimmune Encephalomyelitis (EAE); type: in vivo, SJL/J mice; details: for Day of Onset (±SEM): p < 0.001; for Peak Clinical Score (±SEM): scale 0-5
Description: The EAE model (Brown et al., Lab. Invest. 45:278, 1981) was conducted as follows. Female SJL/J mice (6 weeks old) were randomized into 3 groups of 10. 2 mL of Myelin Proteolipid Peptide (PLP) was emulsified in 3 mL of Complete Freund's Adjuvant containing an additional 20 mg of M. tuberculosis H37Ra. On day 0, mice were immunized subcutaneously in the base of the tail and footpad with a total of 60 μg PLP. They were also given […] pertussis toxin i.p. on days 0 and 2. MP8 or saline control was administered s.c. every day from day −3 to day 20. Progression of the disease was measured up to day 21 on the following scale: 0≡normal; 1≡limp tail or hind limb weakness; 2≡both limp tail and hind limb weakness; 3≡partial hind limb paralysis; 4≡complete hind limb paralysis; 5≡moribund or sacrificed.

p55 TNF Receptor [4] = target: T1, p55 TNF Receptor (Homo sapiens, UniProt P19438); assay: Cleavage of cell surface p55 TNF receptor on THP-1 cells; type: cell-based; details: 45 minutes at 37° C.
T1 construct: endogenous in cells; host or cells: THP-1
T1 sequence (P19438 30-455): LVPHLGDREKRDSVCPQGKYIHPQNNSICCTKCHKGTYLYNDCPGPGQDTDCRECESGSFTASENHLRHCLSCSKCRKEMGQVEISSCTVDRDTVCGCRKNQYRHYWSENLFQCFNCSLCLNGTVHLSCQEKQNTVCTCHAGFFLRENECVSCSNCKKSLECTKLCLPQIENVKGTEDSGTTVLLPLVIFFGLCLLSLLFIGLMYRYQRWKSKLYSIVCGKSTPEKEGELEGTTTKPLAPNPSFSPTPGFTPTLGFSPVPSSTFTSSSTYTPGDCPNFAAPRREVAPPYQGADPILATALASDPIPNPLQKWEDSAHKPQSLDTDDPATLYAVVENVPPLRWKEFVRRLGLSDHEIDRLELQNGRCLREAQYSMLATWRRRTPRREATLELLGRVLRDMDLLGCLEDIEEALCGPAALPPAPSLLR
Description: This cell line expresses both the p55 TNF receptor and the p75 TNF receptor. After incubating for 45 minutes at 37° C., the cells were washed, immunostained for cell surface receptor, and counted by flow cytometry.

TNF receptor [5] = assay: TNF receptor release in vivo after subcutaneous injection; design: species or system Balb/c mice
Description: To determine if the enzyme cleaves TNF receptors in vivo, 100,000 FU of purified MP8 was injected subcutaneously as a 500 μL bolus into female Balb/c mice. Control mice were injected with saline. Serum was sampled periodically, and tested for cytokine levels using ELISA kits from R&D System.

p55 TNF Receptor [6] = target: p55 TNF Receptor (Homo sapiens, UniProt P19438); assay: FRET peptide cleavage assay, p55 TNF receptor peptide; type: biochemical; details: Zn++ 0.1 mM, Ca++ 2 mM, corrected for EDTA, 37° C. for 3 hours
Description: Cytokine-specific proteolytic activity can rapidly be quantified by Fluorescence Resonance Energy Transfer (FRET). Peptides having the amino acid sequence of the TNF Receptor or other protein substrates are labeled at opposite ends with a fluorescence emitter and a fluorescence quencher. The peptide is then incubated with a source of receptor cleaving enzyme, and fluorescence is measured. The quenching group normally absorbs fluorescence from the emitter. But enzymatic cleavage of the peptide decouples the quenching group, and fluorescence emission increases proportionally.
The peptides used as substrates in the cleavage assay were taken from the known sites of proteolytic cleavage of the whole protein. The peptides were labeled with the fluorescence emitter (Edans-●) at the C-terminal, and the quenching hapten (Dabcyl-▴) at the N-terminal.
The assay is conducted in the presence of the metal cations Zn^++ (0.1 mM) and Ca^++ (2 mM), and corrected for cleavage in the presence of EDTA (20 mM). Dependence on divalent cations confirms that the enzyme activity measured in this assay is a metalloprotease. The assay mixture also contains a cocktail of protease inhibitors and bovine albumin. Cleavage is measured as the net change in fluorescence emission after incubating the enzyme with the peptide at 37° C. for 3 hours. […]

TNF receptor [7] = assay: Cell surface cleavage assay, release of TNF receptor isoforms by enzyme immunoassay; type: cell-based; details: 25 μg protein with 2.5×10^6 cells; (treated—untreated)/untreated
Description: To determine cell surface cleavage activity, 25 μg of MP8-FL2 was combined with 2.5×10^6 cells. Release of both TNF receptor isoforms was determined by enzyme immunoassay as (treated—untreated)/untreated.

[8] = 100,000 FU s.c. every day from day −3 to day 20
[9] = 300,000 FU s.c. every day from day −3 to day 20

B1: MP8: polypeptide having the sequence of SEQ. ID NO:41 (usually with a HIS tag); cytokine receptor releasing protein expressed in E. coli (protein, listed as Homo sapiens)
chain: WIQRIRHEGNSTVYEWRTGTEPSVVERPHLEELPEQVAEDAIDWGDFGVEAVSEGTDSGISAEAAGIDWGIFPESDSKDPGGDGIDWGDDAVALQITVLEAGTQAPEGVARGPDALTLLEYTETRNQFLDELMELEIFLAQRAVELSEEADVLSVSQFQLAPAILQGQTKEKMVTMVSVLEDLIGKLTSLQLQHLFMILASPRYVDRVTEFLQQKLKQSQLLALKKELMVQKQQEALEEQAALEPKLDLLLEKTKELQKLIEADISKRYSGRPVNLMGTSL
modifications: HIS tag
notes: ID NO:41 (usually with a HIS tag); cytokine receptor releasing protein expressed in E. coli
inhibition of edema formation [1]: 62% | loss of peptide cleaving activity on storage [2]: no detectable loss of activity | Incidence of Disease [3, 8]: 5 out of 7 | Day of Onset (±SEM) [3, 8]: 18.0 ± 0.8 ^a | Peak Clinical Score (±SEM) [3, 8]: 2.4 ± 0.7 | Incidence of Disease [3, 9]: 3 out of 7 | Day of Onset (±SEM) [3, 9]: 18.0 ± 2.5 ^a | Peak Clinical Score (±SEM) ([3]; 300,000 FU s.c. every day from day −3 to day 20, p < 0.01): 1.0 ± 0.5 ^b | emergence of symptoms ([3]; delayed from 12 days): 18 days | weight gain of treated animals ([3]; mouse, in vivo): continued to show normal weight gain | cleavage of p55 TNF receptor on the surface of cells (p55 TNF Receptor [4]): cleaves | persistence of the effect after administration (TNF receptor [5]; 100,000 FU subcutaneously): 48 h | persistence of released receptors in the circulation (TNF receptor [5]; other experiments): at least 6 days | cleavage of p55 TNF receptor (R1) peptide (p55 TNF Receptor [6]): cleaves | cleavage and release of TNF receptor from the cell surface (TNF receptor [7]): cause cleavage and release of TNF receptor, with preference for the R1 (p55) isoform
